According to patent publication US20250376498A1, “FUSION PROTEINS COMPRISING AN IMPROVED GLP-1 RECEPTOR AGONIST AND USES THEREOF” (Guangzhou Innogen Pharmaceutical Group Co., Ltd., priority 2022, published 2025):
Values joined by “and” are separate entries in the source; they are usually repeats but may differ in a detail not shown here. Equal entries are not always repeated. “Also recorded” adds a separate entry of the source.

Experiments:
SH-SY5Y neuronal cells = assay: Apoptosis in TNF-α-induced SH-SY5Y cells (cleaved-caspase 3 immunofluorescence); type: cell-based; conditions: 60 ng/ml TNF-α, 48 hours; YN-011 10, 100, 500 nM; GABA 1, 10, 100 μM; combination 100 μM GABA + 100 nM YN-011
Procedure: The experimental procedure is as follows: • 1) Digest the SH-SY5Y neuronal cells in a 10 cm culture dish using 0.25% trypsin to prepare a single-cell suspension. Seed the single-cell suspension into a 24-well plate, placing a sterile coverslip in each well. • 2) Place the culture plate in a CO2 incubator and pre-culture overnight at 37° C. with 5% CO2 to allow the cells to adhere. • 3) Using medium containing 5% FBS, treat the cells in each well with 60 ng/ml TNF-α alone or co-treated with 10, 100, or 500 nM YN-011 at 37° C. for 48 hours. […]

NASH Rhesus monkeys = assay: NASH Rhesus monkeys, MRI-PDFF quantitative analysis of hepatic steatosis; type: in vivo; conditions: for percentage reduction of MRI-PDFF liver fat compared to baseline: end of the treatment; for Change rate (%) of liver lipid content: (current - baseline)/baseline
Source text: The GE 3.0T MRI scanner (750W3T MRI, GE Healthcare) was used for liver imaging in this study. The IDEAL-IQ sequence was employed, which combines the IDEAL (Iterative Decomposition of water and fat with Echo Asymmetry and Least-squares estimation) technique with fast three-dimensional multi-echo imaging. This technique includes multi-echo water-fat separation, region-growing algorithm, as well as various imaging methods for tissue fat quantification and R2* relaxation rate. Six contrast images, including in-phase, opposed-phase, water-only, fat-only, fat fraction maps, and R2* maps, were acquired through a single breath-hold scan by collecting signals from six different echo time (TE) values. The images were reconstructed using computer algorithms to obtain the aforementioned contrast images. The IDEAL-IQ hybrid water-fat separation algorithm consisted of two steps. The first step involved complex domain reconstruction to obtain water and fat images, as well as the T2* map. The second step generated an additional set of estimated water and fat images. These two sets of images were then combined using a hybrid algorithm to generate the final water and fat images.
Prior to conducting the experiment, a Phantom test was performed. Five standard fat solutions with known fat content were prepared by modifying the body phantom preparation method used by Clare P. et al.. Pure water was used as 0% fat. Sodium dodecyl sulfate (60 mmol) was dissolved in 1 L of deionized water, heated to 50° C., and then 40 g of gelatin was added and mixed thoroughly. […] of the aforementioned solution, respectively, to prepare solutions with fat contents of 0%, 2.5%, 5%, 10%, 20%, and 100%. These solutions were filled into six 100 ml EP tubes for subsequent scanning procedures.
Phantom validation experiments were performed before each scan. All animals underwent a baseline scan and one additional scan after the completion of the drug administration, totaling two scans. The anesthesia procedure was as follows: intramuscular injection of 10 mg/kg ketamine hydrochloride, endotracheal intubation, and maintenance of anesthesia with isoflurane and oxygen using a ventilator. During the scanning process, veterinary monitoring of electrocardiogramad oxygenation, respiratory rate, etc., was performed, and veterinary supervision was provided until the animals fully recovered consciousness and resumed spontaneous respiration.
Image Post-processing and Analysis: The collected and stored Hepatic steatosis MRI images of Rhesus monkeys were analyzed using the 750W 3T MRI workstation. The liver MRI images were selected by choosing the planes with the maximum exposure of the right hepatic lobe area (layers 1-3), avoiding large blood vessels, bile ducts, and gallbladder to prevent volume effects. Regions of interest (ROI) were selected, with each ROI having an area of 90-110 mm^2. Hepatic steatosis was defined as MRI-PDFF % (Magnetic Resonance Imaging Proton Density Fat Fraction)>6% (consistent with clinical standards).
Fifteen Rhesus monkeys were divided into 3 groups, with 5 monkeys in each group. They received subcutaneous injections of 0 (solvent control, placebo control group), 0.050, or 0.150 mg/kg of YN-011 once a week for 13 weeks (QW). The 0.150 mg/kg YN-011 group received adaptive dosing (0.1 mg/kg for the first dose, followed by 0.150 mg/kg for the remaining 12 doses).

Molecule	apoptosis in TNF-α-induced neuronal cells (cleaved-caspase 3 positive cells) (SH-SY5Y neuronal cells)	percentage reduction of MRI-PDFF liver fat compared to baseline (NASH Rhesus monkeys; 50 μg/kg)	Average ROI Baseline (%) (liver lipid content, MRI-PDFF) (NASH Rhesus monkeys; 0.05 mg/kg group, 0.05 mg/kg)	Mean ROI at day 80 of dosing (%) (liver lipid content, MRI-PDFF) (NASH Rhesus monkeys; 0.05 mg/kg sc QW, 0.05 mg/kg)	Change rate (%) of liver lipid content (NASH Rhesus monkeys; 0.05 mg/kg sc QW)	Average ROI Baseline (%) (liver lipid content, MRI-PDFF) (NASH Rhesus monkeys; 0.15 mg/kg group, 0.15 mg/kg)	Mean ROI at day 80 of dosing (%) (liver lipid content, MRI-PDFF) (NASH Rhesus monkeys; 0.15 mg/kg sc QW, 0.15 mg/kg)	Change rate (%) of liver lipid content (NASH Rhesus monkeys; 0.15 mg/kg sc QW)	percentage reduction of MRI-PDFF liver fat compared to baseline (NASH Rhesus monkeys; 150 μg/kg)	decrease of liver lipid content compared to the placebo control group (NASH Rhesus monkeys; after 13 weeks of weekly treatment)
NCCCC(=O)O [GABA, γ-aminobutyric acid]	reduces apoptosis; also recorded: reduction of apoptosis									
YN-011: GLP-1 fusion protein of SEQ ID NO: 7: GLP-1 (A8G, G22E, R36G), linker peptide and IgG2/Fc domain (C222S, A330S, P331S) (protein) HGEGTFTSDVSSYLEEQAAKEFIAWLVKGGGSSGAPPPSGGGGSERKSCVECPPCPAPPVAGPSVFLFPPKPKDTLMISRTPEVTCVVVDVSHEDPEVQFNWYVDGVEVHNAKTKPREEQFNSTFRVVSVLTVVHQDWLNGKEYKCKVSNKGLPSSIEKTISKTKGQPREPQVYTLPPSREEMTKNQVSLTCLVKGFYPSDIAVEWESNGQPENNYKTTPPMLDSDGSFFLYSKLTVDKSRWQQGNVFSCSVMHEALHNHYTQKSLSLSPG	significantly reduces apoptosis; also recorded: reduction of apoptosis	43.8%	9.0%±0.9% and 9.0 ± 0.9%	5.0%±0.2% and 5.0 ± 0.2** %	−43.8 ± 7.4 %	9.4%±1.5% and 9.4 ± 1.5%	5.6%±1.5% and 5.6 ± 1.5** %	−39.7 ± 14.2 %	39.7%	approximately 40%
